Source: patent US20170145113A1 (Genentech, published 2017)

Target: T1, His-tagged human HtrA1 protease domain (human, UniProt Q92743 161-367)
T1 construct: His-tagged protease domain; also called huHtrA1-PD-His; huHtrA1-PD
Test: SPR (BIACORE T200), huHtrA1-PD-His captured by anti-His, Fab injected
Method: To determine the binding affinity of selected Fab variants for HtrA1, SPR measurement with a BIACORE™ T200 instrument was performed. Briefly, a series S sensor chip CM5 was activated with 1-EDC and NHS reagents according to the supplier's instructions, and anti-His antibody was coupled to achieve 200-300 response units (RU), then following by blocking un-reacted groups with 1 M ethanolamine. For kinetics measurements, approximately 5 nM of huHtrA1-PD-His was first injected at 10 μl/min flow rate to capture approximately 100 RU at 2 different flow cells (FC), except for FC1 (which served as a reference). Next, 5-fold serial dilutions of Fab in HBS-P buffer (0.01M HEPES pH 7.4, 0.15M NaCl, 0.005% surfactant P20) from low (0.8 nM) to high (50 nM) were injected (flow rate: 30 μl/min). The binding responses on HtrA1 were corrected by subtracting of RU from a blank flow cell. The sensorgram was recorded and subject to reference and buffer subtraction before evaluating by BIACORE® T200 Evaluation Software (version 2.0). Association rates (kₒₙ) and dissociation rates (koff) were calculated using a simple one-to-one Langmuir binding model. The equilibrium dissociation constant (KD) was calculated as the ratio of koff/kₒₙ.

T1 sequence (Q92743 other isoform, or with tags, fused parts or gaps limits assumed): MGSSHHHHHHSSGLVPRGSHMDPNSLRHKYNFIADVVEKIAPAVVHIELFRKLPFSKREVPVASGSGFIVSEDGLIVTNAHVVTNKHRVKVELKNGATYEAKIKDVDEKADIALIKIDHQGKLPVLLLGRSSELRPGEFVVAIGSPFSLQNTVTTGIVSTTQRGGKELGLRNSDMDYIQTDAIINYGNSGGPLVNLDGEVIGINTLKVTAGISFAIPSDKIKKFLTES

Binder | Kd | koff | kon
h15H6.v2 variant LC4 (LC-N53H) Fab (Fab, V domains shown, Fab-Flag tag fusion from 293T cells) VH: EVQLVQSGAEVKKPGASVKVSCKASGYTFTDSEMHWVRQAPGQGLEWIGGVDPETDGAAYNQKFKGRATITRDTSTSTAYLELSSLRSEDTAVYYCTRGYDYDYALDYWGQGTLVTVSS VL: DIQMTQSPSSLSASVGDRVTITCRASSSVNFIHWYQQKPGKAPKPLISATSHLASGVPSRFSGSGSGTDFTLTISSLQPEDFATYYCQQWSSNPWTFGQGTKVEIK | 0.517 nM | 0.000213 s⁻¹ | 413000 M⁻¹ s⁻¹
h15H6.v2 variant HC3 (HC-T28K) Fab (Fab, V domains shown, Fab-Flag tag fusion from 293T cells) VH: EVQLVQSGAEVKKPGASVKVSCKASGYKFTDSEMHWVRQAPGQGLEWIGGVDPETDGAAYNQKFKGRATITRDTSTSTAYLELSSLRSEDTAVYYCTRGYDYDYALDYWGQGTLVTVSS VL: DIQMTQSPSSLSASVGDRVTITCRASSSVNFIHWYQQKPGKAPKPLISATSNLASGVPSRFSGSGSGTDFTLTISSLQPEDFATYYCQQWSSNPWTFGQGTKVEIK | 0.374 nM | 0.000171 s⁻¹ | 456000 M⁻¹ s⁻¹
h15H6.v2 variant HC5 (HC-M34L) Fab (Fab, V domains shown, Fab-Flag tag fusion from 293T cells) VH: EVQLVQSGAEVKKPGASVKVSCKASGYTFTDSELHWVRQAPGQGLEWIGGVDPETDGAAYNQKFKGRATITRDTSTSTAYLELSSLRSEDTAVYYCTRGYDYDYALDYWGQGTLVTVSS VL: DIQMTQSPSSLSASVGDRVTITCRASSSVNFIHWYQQKPGKAPKPLISATSNLASGVPSRFSGSGSGTDFTLTISSLQPEDFATYYCQQWSSNPWTFGQGTKVEIK | 0.481 nM | 0.000246 s⁻¹ | 511000 M⁻¹ s⁻¹
h15H6.v2 variant HC4 (HC-T28R) Fab (Fab, V domains shown, Fab-Flag tag fusion from 293T cells) VH: EVQLVQSGAEVKKPGASVKVSCKASGYRFTDSEMHWVRQAPGQGLEWIGGVDPETDGAAYNQKFKGRATITRDTSTSTAYLELSSLRSEDTAVYYCTRGYDYDYALDYWGQGTLVTVSS VL: DIQMTQSPSSLSASVGDRVTITCRASSSVNFIHWYQQKPGKAPKPLISATSNLASGVPSRFSGSGSGTDFTLTISSLQPEDFATYYCQQWSSNPWTFGQGTKVEIK | 0.643 nM | 0.000212 s⁻¹ | 331000 M⁻¹ s⁻¹
h15H6.v2 variant HC6 (HC-E53A) Fab (Fab, V domains shown, Fab-Flag tag fusion from 293T cells) VH: EVQLVQSGAEVKKPGASVKVSCKASGYTFTDSEMHWVRQAPGQGLEWIGGVDPATDGAAYNQKFKGRATITRDTSTSTAYLELSSLRSEDTAVYYCTRGYDYDYALDYWGQGTLVTVSS VL: DIQMTQSPSSLSASVGDRVTITCRASSSVNFIHWYQQKPGKAPKPLISATSNLASGVPSRFSGSGSGTDFTLTISSLQPEDFATYYCQQWSSNPWTFGQGTKVEIK | 2.58 nM | 0.00026 s⁻¹ | 101000 M⁻¹ s⁻¹
h15H6.v2 variant HC1 (HC-T30K) Fab (Fab, V domains shown, Fab-Flag tag fusion from 293T cells) VH: EVQLVQSGAEVKKPGASVKVSCKASGYTFKDSEMHWVRQAPGQGLEWIGGVDPETDGAAYNQKFKGRATITRDTSTSTAYLELSSLRSEDTAVYYCTRGYDYDYALDYWGQGTLVTVSS VL: DIQMTQSPSSLSASVGDRVTITCRASSSVNFIHWYQQKPGKAPKPLISATSNLASGVPSRFSGSGSGTDFTLTISSLQPEDFATYYCQQWSSNPWTFGQGTKVEIK | 0.475 nM | 0.000165 s⁻¹ | 347000 M⁻¹ s⁻¹
h15H6.v2 variant HC7 (HC-A58F) Fab (Fab, V domains shown, Fab-Flag tag fusion from 293T cells) VH: EVQLVQSGAEVKKPGASVKVSCKASGYTFTDSEMHWVRQAPGQGLEWIGGVDPETDGAFYNQKFKGRATITRDTSTSTAYLELSSLRSEDTAVYYCTRGYDYDYALDYWGQGTLVTVSS VL: DIQMTQSPSSLSASVGDRVTITCRASSSVNFIHWYQQKPGKAPKPLISATSNLASGVPSRFSGSGSGTDFTLTISSLQPEDFATYYCQQWSSNPWTFGQGTKVEIK | 0.611 nM | 0.000165 s⁻¹ | 271000 M⁻¹ s⁻¹
h15H6.v2 variant LC6 (LC-Q89H) Fab (Fab, V domains shown, Fab-Flag tag fusion from 293T cells) VH: EVQLVQSGAEVKKPGASVKVSCKASGYTFTDSEMHWVRQAPGQGLEWIGGVDPETDGAAYNQKFKGRATITRDTSTSTAYLELSSLRSEDTAVYYCTRGYDYDYALDYWGQGTLVTVSS VL: DIQMTQSPSSLSASVGDRVTITCRASSSVNFIHWYQQKPGKAPKPLISATSNLASGVPSRFSGSGSGTDFTLTISSLQPEDFATYYCHQWSSNPWTFGQGTKVEIK | 0.642 nM | 0.000251 s⁻¹ | 390000 M⁻¹ s⁻¹
h15H6.v2 variant LC8 (LC-S92K) Fab (Fab, V domains shown, Fab-Flag tag fusion from 293T cells) VH: EVQLVQSGAEVKKPGASVKVSCKASGYTFTDSEMHWVRQAPGQGLEWIGGVDPETDGAAYNQKFKGRATITRDTSTSTAYLELSSLRSEDTAVYYCTRGYDYDYALDYWGQGTLVTVSS VL: DIQMTQSPSSLSASVGDRVTITCRASSSVNFIHWYQQKPGKAPKPLISATSNLASGVPSRFSGSGSGTDFTLTISSLQPEDFATYYCQQWKSNPWTFGQGTKVEIK | 1.16 nM | 0.000397 s⁻¹ | 343000 M⁻¹ s⁻¹
